1 molecule from patent publication US20090022728A1 (RINAT NEUROSCIENCE, published 2009) can be followed below.

Like-named read-outs stand apart in the source and are kept apart here.

In assay [1] the target is T1, biotinylated Aβ1-40 peptide (biotinylated (N-biotinylated in Example 7)).
T1 construct: captured on streptavidin (SA) chip; also called Biotinylated Aβ peptide 1-40; Aβ1-40 on SA chip
Description: SPR, Fab over Aβ1-40 on SA chip. A general note: In SPR one partner is held on a chip, and binding of the other changes the refractive index at the surface.
Target sequence in this assay (peptide, as listed by the source): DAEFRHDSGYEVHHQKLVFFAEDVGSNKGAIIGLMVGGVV

The target in assay [2] is T1, biotinylated Aβ1-40 peptide. Kind of assay: SPR, Fab over Aβ1-40 on SA chip; Fab fragment; Aβ1-40 immobilized on SA chip. On the procedure: Affinities of 9TL Fab fragment and its variants Fab fragments were determined by Surface Plasmon Resonance (SPR) system (BIAcore 3000™, BIAcore, Inc., Piscaway, N.J.). SA chips (streptavidin) were used according to the supplier's instructions. Biotinylated Aβ peptide 1-40 was diluted into HBS-EP (10 mM HEPES pH 7.4, 150 mM NaCl, 3 mM EDTA, 0.005% P20) and injected over the chip at a concentration of 0.005 mg/mL. Using variable flow time across the individual chip channels, two ranges of antigen density were achieved: 10-200 response units (RU) for detailed kinetic studies and 500-600 RU for concentration studies and screening. […] HBS-EP buffer was used as running buffer for all the BIAcore assays. […] The concentrations of the Fab proteins were determined by ELISA and/or SDS-PAGE electrophoresis using a standard Fab of known concentration (determined by amino acid analysis). […] Equilibrium dissociation constant (KD) values were calculated as koff/kₒₙ.
All amino acid substitutions of the variants shown in Table 3 are described relative to the sequence of 9TL. KD and other kinetic parameters were determined by BIAcore analysis described above with Aβ₁₋₄₀ immobilized on SA chip.

Assay [3] has the same target. Kind of assay: SPR, Fab over Aβ1-40 on SA chip. On the procedure: Affinities of 9TL Fab fragment and its variants Fab fragments were determined by Surface Plasmon Resonance (SPR) system (BIAcore 3000™, BIAcore, Inc., Piscaway, N.J.). SA chips (streptavidin) were used according to the supplier's instructions. Biotinylated Aβ peptide 1-40 was diluted into HBS-EP (10 mM HEPES pH 7.4, 150 mM NaCl, 3 mM EDTA, 0.005% P20) and injected over the chip at a concentration of 0.005 mg/mL. Using variable flow time across the individual chip channels, two ranges of antigen density were achieved: 10-200 response units (RU) for detailed kinetic studies and 500-600 RU for concentration studies and screening. […] HBS-EP buffer was used as running buffer for all the BIAcore assays. […] The concentrations of the Fab proteins were determined by ELISA and/or SDS-PAGE electrophoresis using a standard Fab of known concentration (determined by amino acid analysis). Kinetic association rates (kₒₙ) and dissociation rates (koff) were obtained simultaneously by fitting the data to a 1:1 Langmuir binding model (Karlsson, R. Roos, H. Fagerstam, L. Petersson, B. (1994). Methods Enzymology 6. 99-110) using the BIAevaluation program. Equilibrium dissociation constant (KD) values were calculated as koff/kₒₙ.
The source holds these as a separate data set.

Another assay concerns the target T2, Aβ17-40 peptide.
T2 peptide: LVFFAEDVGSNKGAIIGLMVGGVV
Description: SPR peptide competition, Aβ1-40 on SA chip. On the procedure:
(§1) To determine the epitope on Aβ polypeptide that is recognized by antibody 9TL, Surface Plasmon Resonance (SPR, Biacore 3000) binding analysis was used. Aβ₁₋₄₀ polypeptide coupled to biotin (Global Peptide Services, CO) was immobilized on a streptavidin-coated chip (SA chip). The binding of Aβ antibodies Fab fragments (at 50 nM) to the immobilized Aβ₁₋₄₀ in the absence or presence of different soluble fragments of the Aβ peptide (at […], from American Peptide Company Inc., CA). Amino acid sequences of Aβ₁₋₄₀, Aβ₁₋₄₂, and Aβ₁₋₄₃ are shown in below in Table 4. The Aβ peptides which displaced binding of antibody 9TL Fab fragment to Aβ₁₋₄₀ were Aβ₂₈₄₀, Aβ₁₋₄₀, Aβ₃₃₋₄₀, and Aβ₁₇₋₄₀, respectively (FIG. 2). Thus, antibody 9TL binds to a C-terminal peptide (33-40) of Aβ₁₋₄₀.

In a further assay the target is T3, Aβ33-40 peptide.
T3 construct: also called C-terminal peptide (33-40) of Aβ1-40
T3 peptide: GLMVGGVV
Description: SPR peptide competition, Aβ1-40 on SA chip. The method, then: as §1

For another assay, the target named is T4, Aβ1-43 peptide.
T4 construct: also called 1-43 (WT)
T4 sequence (peptide, as listed by the source): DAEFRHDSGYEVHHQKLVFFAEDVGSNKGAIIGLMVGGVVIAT
Description: SPR peptide competition, Aβ1-40 on SA chip. On the procedure: as §1

The next assay deals with T5, Aβ28-40 peptide.
T5 peptide: KGAIIGLMVGGVV
Kind of assay: SPR peptide competition, Aβ1-40 on SA chip. On the procedure:
as §1

For a further assay, the target named is T6, Aβ28-42 peptide.
T6 peptide: KGAIIGLMVGGVVIA
Description: SPR peptide competition, Aβ1-40 on SA chip. On the procedure:
as §1

Assay [4] deals with T1, biotinylated Aβ1-40 peptide. Kind of assay: SPR, Fab over Aβ1-40 on SA chip; KD=koff/kon.

B1: 9TL Fab fragment (Fab, V domains shown)
VH: QVQLVQSGAEVKKPGASVKVSCKASGYYTEAYYIHWVRQAPGQGLEWMGRIDPATGNTKYAPRLQDRVTMTRDTSTSTVYMELSSLRSEDTAVYYCASLYSLPVYWGQGTTVTVSS
VL: DVVMTQSPLSLPVTLGQPASISCKSSQSLLYSDAKTYLNWFQQRPGQSPRRLIYQISRLDPGVPDRFSGSGSGTDFTLKISRVEAEDVGVYYCLQGTHYPVLFGQGTRLEIKR
notes: Fab from E. coli with human IgG2 CH1 (P01859) and human kappa constant domain (CAA09181)
The koff is the rate constant with which the complex falls apart. Low readings indicate slow dissociation, high ones fast dissociation. The term kon denotes a measure of how fast the partners come together. The low end stands for slower complex formation, the high end for faster complex formation. What is called Kd is the equilibrium constant for the complex coming apart. Low values mean a tighter complex, high ones a looser complex. On to B1, for which the koff in [1] and in assay [3] was 0.000359 s⁻¹ throughout. Further, the kon in assay [2] and in [3] was 318000 M⁻¹ s⁻¹ each time. In addition, the Kd in assay [3] and in assay [4] was 1.13 nM in each case. In addition, the binding result is “binds” in the assay with Aβ17-40 peptide; “binds” in the assay with Aβ33-40 peptide; “no binding (tested: 10 µM (FIG. 2 legend; text prints 10 pM))” with Aβ1-43 peptide; “binds” with Aβ28-40 peptide; “no binding (tested: 10 µM (FIG. 2 legend; text prints 10 pM))” with Aβ28-42 peptide.
